The conditions of series [1]: solution NMR, Trp1-Hα and Trp1-Hβ shifts at pH 6.0, 7.0, 7.5, 8.0, 9.0, Henderson-Hasselbach fit; error by Monte Carlo.
Description: pKa values were determined by following the chemical shifts of Trp1-Hα and Trp1-Hβ at pH values of 6.0, 7.0, 7.5, 8.0 and
9.0. The 10 obtained chemical shifts were fitted to the Henderson-Hasselbach equation with the assumption that peak
position is a weighted average of the two end-point chemical shifts; optimization parameters were the two end-point shifts
(representing fully ionized and fully deionized forms of the N-terminal amino group of the peptide. Errors were determined
by Monte Carlo simulations with a measurement error of 0.01 ppm for all chemical shifts.
For series [2], the target named is Nterm1 (position 1, -----WGRGRG). Nature of the series: NMR. Particulars: 300 K (general NMR methods statement; not restated for the titration), NaCl 0-0.2 M used in NMR samples, concentration for the pKa titration not given, 20 mM Tris (NMR methods), Free peptide in solution, disordered.

No end group written: not given here.

As usually defined, the pKa is the negative logarithm of the acid dissociation constant.

As for WGRGRGRGWPGVGF [WGR-3], the “pKa of the N-terminal amine group” value in series [1] is on record as 7.49 ± 0.01.

Take WGRGRGRGWY [WGR-4]: in series [1], the “pKa of the N-terminal amine group” value was found to be 7.37 ± 0.01.

With WGRGRGWPGVGY [WGR-5], the “pKa of the N-terminal amine group” value in series [1] is listed as 7.51 ± 0.01.

As to WGRGRGRGWPGVGF [WGR-3 designer LLPS peptide (Tyr14 to Phe variant of WGR-1) (synthetic construct; Y14F)], in series [2], the pKa is reported as 7.49 ± 0.01.

For the molecule WGRGRGRGWPGVGY [WGR-1 designer LLPS peptide (synthetic construct)], the pKa in series [2] came out at 7.50 ± 0.01.

WGRGRGWPGVGY registered a pKa in series [2] of 7.51 ± 0.01.

Molecule WGRGRGRGWY [WGR-4 designer LLPS peptide (WGR-1 without the ELP motif) (synthetic construct; del10-13)] displayed a pKa in series [2] of 7.37 ± 0.01.

Source of the values: PMC9879991, “Biomolecular condensates formed by designer minimalistic peptides” (Nature Communications, 2023).
